Details in all cases: remark: other sources report otherwise
Assay [1] deals with recombinant soluble homotrimeric HA of A/common magpie/Hong Kong/5052/07 (H5N1) (Influenza A virus A/common magpie/Hong Kong/5052/07 (H5N1)). Kind of assay: microarray, BCC supernatant IgG, trimeric HA.
Assay [2] concerns the target recombinant soluble homotrimeric HA of A/Common magpie/Hong Kong/5052/07 - H5N1 (Influenza A virus A/common magpie/Hong Kong/5052/2007 (H5N1)). Kind of assay: micro-array; captured IgG, V5-tagged trimeric HA.
The target in assay [3] is Hemagglutinin of influenza A/Japan/305/57 (H2N2), on inactivated whole virions (Influenza A virus A/Japan/305/1957 (H2N2)), P03451. Kind of assay: ELISA, B cell culture supernatant on inactivated whole virions. For orientation: An ELISA detects its analyte on a solid surface through an enzyme-linked reagent.

B1: TCN-533 (5256_A17) (antibody, V domains shown)
VH: QVQLVQSGADVKKPGSSVTVSCKASGGSFSNYGINWVRQAPGQGLEWMGGIIPLINAPNYAPKFQGRVTITADMFSNIVSLQLTSLRTDDTAVYYCARRKMTTAIDYWGQGTLVTVSS
VL: QPVLSQPPSASASLGASVTLTCTLSSGFDNYQVAWYQQRPGKGPRFVMRVGNGGNVASKGDGIPDRFSVSGSGLNRYLTIKNIQEDDESDYYCGADHGSGNNFVSPYVFGGGTKLTVL
In the case of B1, the Trimeric HA Binding: RLU in assay [1] came out at 44500 RLU.

B2: TCN-542 (5079_A16) (antibody, V domains shown)
VH: QVQLQESGPGLVKPSQTLSLTCTVSGGSISSGNYYWNWVRQHPGKGLEWIGYIYYRGSTFYNPSLKSRVTISIDTSKNQFSLRLSSVTAADTAVYYCAKDTRSSLDNYQYGMDVWGQGTTVTVSS
VL: QTVVTQEPSLTVSPGGTVTLTCASSTGAVTSSYFPNWFQQKPGQAPRPLIYSTTIRHSWTPARFSGSLLGGKAALTLSGVQPEDEADYYCLLYSGGDPVAFGGGTKLTVL
As for B2, the Trimeric HA Binding: RLU in assay [2] was 1670 RLU.

B3: TCN-551 (5243_D01) (antibody, V domains shown)
VH: EVQLVQSGSEVKKPGESLKISCKGSGYSFSNYWIGWVRHMPGKGLEWMGIIYPGDSDTRYSPSFQGQVTMSADKSSSTVYLQWSSLKASDTAIYYCARRGGHSFGYGSGGDTHSEFDSWGQGTLVTVSS
VL: QSVLTQSPSVSAAPGQKVTISCSGSDSNIGDYFVCWYQHLPGKPPQLLIYENNKRPSGIPDRFSGSKSGTSATLGITGIQTGDEADYYCATWDGSLSAWVFGGGTKLTVL
In assay [3], B3 came in with an OD450 of 0.19 OD450.

B4: TCN-539 (5056_A08) (antibody, V domains shown)
VH: QVQLVESGGGVVQPGRSLRLSCAASEITFITYAMHWVRQAPGKGLEWVALISDDGSNKFYADSVKGRFTISRDNSKNTLYLQMNSLRAEDTAAYYCAREGVYFDSGTYRGYFDYWGQETLVTVSS
VL: EIVLTQSPATLSLSPGERATLSCRASQSVSSYLAWYQQKPGQAPRLLIYDASNRATGIPARFSGSGSGTDFTLTISSLEPEDFAVYYCQQRSHWPPITFGQGTRLEIK
Take B4: in assay [2], the Trimeric HA Binding: RLU was 1440 RLU.
